Measured values: US20250002610A1 (Genmab, published 2025)

What was measured:
[1] = molecular target: T1, human DR4 (Death Receptor 4), cell surface expressed on human tumor cell lines (human, UniProt O00220 24-468); test: flow cytometry, HCT-116 cells, n = 3
T1 construct: also called TNFRSF10A; TRAIL-R1
T1 sequence: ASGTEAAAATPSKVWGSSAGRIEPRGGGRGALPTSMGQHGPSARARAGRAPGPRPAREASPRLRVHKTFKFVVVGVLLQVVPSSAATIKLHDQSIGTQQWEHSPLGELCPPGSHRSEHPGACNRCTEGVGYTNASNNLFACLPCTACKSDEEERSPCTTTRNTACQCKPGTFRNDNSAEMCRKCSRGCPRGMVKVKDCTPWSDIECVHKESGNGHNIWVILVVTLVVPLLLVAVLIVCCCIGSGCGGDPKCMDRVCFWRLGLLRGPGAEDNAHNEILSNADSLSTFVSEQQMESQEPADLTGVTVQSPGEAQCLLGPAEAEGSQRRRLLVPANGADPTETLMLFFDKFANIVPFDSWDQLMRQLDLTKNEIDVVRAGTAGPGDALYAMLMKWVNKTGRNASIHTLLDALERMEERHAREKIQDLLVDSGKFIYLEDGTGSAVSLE

[2] = molecular target: T2, human FAPα (Fibroblast activation protein alpha), cell surface expressed (human, UniProt Q12884 1-760); test: flow cytometry, human lung fibroblasts, n = 3
T2 construct: Endogenous on human lung fibroblasts and CAFs
T2 sequence: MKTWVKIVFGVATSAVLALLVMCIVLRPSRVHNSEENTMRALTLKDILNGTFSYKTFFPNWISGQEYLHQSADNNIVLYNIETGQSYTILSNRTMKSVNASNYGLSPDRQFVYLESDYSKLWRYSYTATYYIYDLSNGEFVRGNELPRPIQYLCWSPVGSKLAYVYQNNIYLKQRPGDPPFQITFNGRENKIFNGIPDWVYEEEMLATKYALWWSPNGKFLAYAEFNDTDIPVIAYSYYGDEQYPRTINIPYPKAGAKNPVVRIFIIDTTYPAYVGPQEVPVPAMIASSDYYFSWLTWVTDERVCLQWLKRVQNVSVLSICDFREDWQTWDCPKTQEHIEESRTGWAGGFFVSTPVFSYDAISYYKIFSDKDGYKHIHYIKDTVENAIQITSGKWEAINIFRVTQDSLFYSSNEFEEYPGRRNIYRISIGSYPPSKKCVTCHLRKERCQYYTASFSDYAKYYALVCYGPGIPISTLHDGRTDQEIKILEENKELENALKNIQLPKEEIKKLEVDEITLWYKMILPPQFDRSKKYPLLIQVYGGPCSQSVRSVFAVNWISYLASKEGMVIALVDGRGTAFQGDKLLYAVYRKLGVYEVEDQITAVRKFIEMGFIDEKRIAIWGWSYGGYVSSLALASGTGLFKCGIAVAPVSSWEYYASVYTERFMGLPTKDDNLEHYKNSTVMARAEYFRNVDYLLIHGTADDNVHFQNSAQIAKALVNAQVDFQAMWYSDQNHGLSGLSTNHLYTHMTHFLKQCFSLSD
Procedure: Binding of bispecific or monoclonal antibodies carrying the anti-FAPα arm derived from IgG1-FAPα-FERL (BisG1-FAPα-FERL/DR4-FERR, BisG1-FAPα-FERL/b12-FERR, and IgG1-FAPα-FERL) to cell surface expressed human FAPα was analyzed by flow cytometry using human lung fibroblasts and CAFs, which endogenously express FAPα. BisG1-b12-FERL/b12-FERR was used as negative control.
Human lung fibroblasts and CAFs (50,000 cells/well) were seeded in 96-Well round bottom plates (Greiner Bio-one, Cat #650101). Antibody dilutions were prepared using fluorescence-activated cell sorting (FACS) buffer, consisting of phosphate buffer saline (PBS, Lonza, Cat #BE17-517Q)+1% Bovine Serum Albumin (BSA, Roche, Cat #10735086001)+0.02% Sodium Azide (Bio-World, Cat #41920044-3). Plates were centrifuged, supernatant was removed, cells were resuspended in 50 μL of human Fc Block (BD, Cat #564220, diluted 1:100 in FACS buffer) and 50 μL of viability stain TO-PRO-3 Iodide (Thermo Fisher, Cat #T3605, diluted 1: 25,000 in FACS buffer), and incubated for 15 min at 4° C. Plates were washed three times with FACS buffer. Plates were centrifuged, supernatant was removed, cells were resuspended in 50 μL of antibody dilutions (concentration range 90-0.0005 μg/mL, three-fold dilution steps using FACS buffer) of BisG1-FAPα-FERL/DR4-FERR, BisG1-FAPα-FERL/b12-FERR, BisG1-b12-FERL/b12-FERR (top six concentrations only for CAFs culture) or IgG1-FAPα-FERL (top four concentrations only for CAFs culture) and incubated for 30 min at 4° C. Cells were washed three times with FACS buffer and resuspended in 50 μL of Fluorescein isothiocyanate (FITC)-labeled polyclonal antibody goat anti-mouse IgG1 (Jackson Immuno Research, Cat #109-096-097, diluted 1:100 in FACS buffer). […] Antibody binding to viable cells (TO-PRO-3 negative) was analyzed by flow cytometry on a FACSCelesta™ (BD biosciences) and data were processed using FlowJo_v10.8.1 (FlowJo LLC). Geomean fluorescence intensity, gMFI, was determined and visualized using GraphPad Prism.

B1: IgG1-DR4-FERR (antibody, V domains shown)
VH: QVQLQESGPGLVKPSGTLSLTCAVSGGSISSYSWWSWIRQPPGKGLEWIGELYHSGSTNYNPSLKSRVTISVDKSKNQFSLKLRSVTAADTAVYYCVRGVATIDYWGQGTLVTVSS
VL: QSALTQPPSASGSPGQSVTISCTGTSSDVGGYNFVSWYQQDPGKAPKLLIYEVTKRPSGVPDRFSGSKSGNTASLTVSGLQAEDEADYYCSSYAGSNNVMFGGGTKLTVLG
notes: Bivalent monoclonal IgG1 lambda
EC50 [1]: 0.11 µg/mL

B2: BisG1-FAPα-FERL/b12-FERR (bispecific antibody, human IgG1, kappa)
heavy 1: EVQLLESGGGLVQPGGSPRLSCEASGFTFSSYALSWVRQAPGKGLEWVSAISGSGGGRYYADSVKGRFTISRDNSKNTLFLQMNSLRAEDTAVYYCAKEGYSSSGTYWDHWGQGTLVTVSSASTKGPSVFPLAPSSKSTSGGTAALGCLVKDYFPEPVTVSWNSGALTSGVHTFPAVLQSSGLYSLSSVVTVPSSSLGTQTYICNVNHKPSNTKVDKRVEPKSCDKTHTCPPCPAPEFERGPSVFLFPPKPKDTLMISRTPEVTCVVVDVSHEDPEVKFNWYVDGVEVHNAKTKPREEQYNSTYRVVSVLTVLHQDWLNGKEYKCKVSNKALPAPIEKTISKAKGQPREPQVYTLPPSREEMTKNQVSLTCLVKGFYPSDIAVEWESNGQPENNYKTTPPVLDSDGSFLLYSKLTVDKSRWQQGNVFSCSVMHEALHNHYTQKSLSLSPG
light 1: AIQMTQSPSSVSASVGDRVTITCRASQGVSSWLAWYQQKPGRAPKLLIYVASTLQSGVPSRFSGSGSGTDFTLTINSLQPEDFATYYCQQANSFPPTFGQGTRLEMKRTVAAPSVFIFPPSDEQLKSGTASVVCLLNNFYPREAKVQWKVDNALQSGNSQESVTEQDSKDSTYSLSSTLTLSKADYEKHKVYACEVTHQGLSSPVTKSFNRGEC
heavy 2: QVQLVQSGAEVKKPGASVKVSCQASGYRFSNFVIHWVRQAPGQRFEWMGWINPYNGNKEFSAKFQDRVTFTADTSANTAYMELRSLRSADTAVYYCARVGPYSWDDSPQDNYYMDVWGKGTTVIVSSASTKGPSVFPLAPSSKSTSGGTAALGCLVKDYFPEPVTVSWNSGALTSGVHTFPAVLQSSGLYSLSSVVTVPSSSLGTQTYICNVNHKPSNTKVDKRVEPKSCDKTHTCPPCPAPEFERGPSVFLFPPKPKDTLMISRTPEVTCVVVDVSHEDPEVKFNWYVDGVEVHNAKTKPREEQYNSTYRVVSVLTVLHQDWLNGKEYKCKVSNKALPAPIEKTISKAKGQPREPQVYTLPPSREEMTKNQVSLTCLVKGFYPSDIAVEWESNGQPENNYKTTPPVLDSDGSFFLYSRLTVDKSRWQQGNVFSCSVMHEALHNHYTQKSLSLSPG
light 2: EIVLTQSPGTLSLSPGERATFSCRSSHSIRSRRVAWYQHKPGQAPRLVIHGVSNRASGISDRFSGSGSGTDFTLTITRVEPEDFALYYCQVYGASSYTFGQGTKLERKRTVAAPSVFIFPPSDEQLKSGTASVVCLLNNFYPREAKVQWKVDNALQSGNSQESVTEQDSKDSTYSLSSTLTLSKADYEKHKVYACEVTHQGLSSPVTKSFNRGEC
EC50 [2]: 0.048 µg/mL

B3: BisG1-b12-FERL/DR4-FERR (bispecific antibody, human IgG1, kappa, lambda)
heavy 1: QVQLVQSGAEVKKPGASVKVSCQASGYRFSNFVIHWVRQAPGQRFEWMGWINPYNGNKEFSAKFQDRVTFTADTSANTAYMELRSLRSADTAVYYCARVGPYSWDDSPQDNYYMDVWGKGTTVIVSSASTKGPSVFPLAPSSKSTSGGTAALGCLVKDYFPEPVTVSWNSGALTSGVHTFPAVLQSSGLYSLSSVVTVPSSSLGTQTYICNVNHKPSNTKVDKRVEPKSCDKTHTCPPCPAPEFERGPSVFLFPPKPKDTLMISRTPEVTCVVVDVSHEDPEVKFNWYVDGVEVHNAKTKPREEQYNSTYRVVSVLTVLHQDWLNGKEYKCKVSNKALPAPIEKTISKAKGQPREPQVYTLPPSREEMTKNQVSLTCLVKGFYPSDIAVEWESNGQPENNYKTTPPVLDSDGSFLLYSKLTVDKSRWQQGNVFSCSVMHEALHNHYTQKSLSLSPG
light 1: EIVLTQSPGTLSLSPGERATFSCRSSHSIRSRRVAWYQHKPGQAPRLVIHGVSNRASGISDRFSGSGSGTDFTLTITRVEPEDFALYYCQVYGASSYTFGQGTKLERKRTVAAPSVFIFPPSDEQLKSGTASVVCLLNNFYPREAKVQWKVDNALQSGNSQESVTEQDSKDSTYSLSSTLTLSKADYEKHKVYACEVTHQGLSSPVTKSFNRGEC
heavy 2: QVQLQESGPGLVKPSGTLSLTCAVSGGSISSYSWWSWIRQPPGKGLEWIGELYHSGSTNYNPSLKSRVTISVDKSKNQFSLKLRSVTAADTAVYYCVRGVATIDYWGQGTLVTVSSASTKGPSVFPLAPSSKSTSGGTAALGCLVKDYFPEPVTVSWNSGALTSGVHTFPAVLQSSGLYSLSSVVTVPSSSLGTQTYICNVNHKPSNTKVDKRVEPKSCDKTHTCPPCPAPEFERGPSVFLFPPKPKDTLMISRTPEVTCVVVDVSHEDPEVKFNWYVDGVEVHNAKTKPREEQYNSTYRVVSVLTVLHQDWLNGKEYKCKVSNKALPAPIEKTISKAKGQPREPQVYTLPPSREEMTKNQVSLTCLVKGFYPSDIAVEWESNGQPENNYKTTPPVLDSDGSFFLYSRLTVDKSRWQQGNVFSCSVMHEALHNHYTQKSLSLSPG
light 2: QSALTQPPSASGSPGQSVTISCTGTSSDVGGYNFVSWYQQDPGKAPKLLIYEVTKRPSGVPDRFSGSKSGNTASLTVSGLQAEDEADYYCSSYAGSNNVMFGGGTKLTVLGQPKAAPSVTLFPPSSEELQANKATLVCLISDFYPGAVTVAWKADSSPVKAGVETTTPSKQSNNKYAASSYLSLTPEQWKSHRSYSCQVTHEGSTVEKTVAPTECS
notes: Fab-arm exchange of IgG1-b12-FERL and IgG1-DR4-FERR; also called bsIgG1-ctrl-FERLxDR4-FERR
EC50 [1]: 0.55 µg/mL

B4: IgG1-FAPα-FERL (antibody)
heavy: EVQLLESGGGLVQPGGSPRLSCEASGFTFSSYALSWVRQAPGKGLEWVSAISGSGGGRYYADSVKGRFTISRDNSKNTLFLQMNSLRAEDTAVYYCAKEGYSSSGTYWDHWGQGTLVTVSSASTKGPSVFPLAPSSKSTSGGTAALGCLVKDYFPEPVTVSWNSGALTSGVHTFPAVLQSSGLYSLSSVVTVPSSSLGTQTYICNVNHKPSNTKVDKRVEPKSCDKTHTCPPCPAPEFERGPSVFLFPPKPKDTLMISRTPEVTCVVVDVSHEDPEVKFNWYVDGVEVHNAKTKPREEQYNSTYRVVSVLTVLHQDWLNGKEYKCKVSNKALPAPIEKTISKAKGQPREPQVYTLPPSREEMTKNQVSLTCLVKGFYPSDIAVEWESNGQPENNYKTTPPVLDSDGSFLLYSKLTVDKSRWQQGNVFSCSVMHEALHNHYTQKSLSLSPG
light: AIQMTQSPSSVSASVGDRVTITCRASQGVSSWLAWYQQKPGRAPKLLIYVASTLQSGVPSRFSGSGSGTDFTLTINSLQPEDFATYYCQQANSFPPTFGQGTRLEMKRTVAAPSVFIFPPSDEQLKSGTASVVCLLNNFYPREAKVQWKVDNALQSGNSQESVTEQDSKDSTYSLSSTLTLSKADYEKHKVYACEVTHQGLSSPVTKSFNRGEC
notes: Bivalent monoclonal IgG1 kappa
EC50 [2]: 0.022 µg/mL
